These results are taken from PMC12635249.

“And” between values parts separate entries of the source, which are not always exact repeats. Identical values can stand only once.

The test addresses PorKN heterodimer unit (P. gingivalis). As to the kind of experiment: cryo-EM structure.

By stoichiometry N is commonly meant a count of units in the complex or per binding partner.

Take PorKN heterodimer unit (complex): the stoichiometry N was 31 to 35 (2×) and 33.
